Article PMC9890520

Tests used:
[1] = target: human EGFR.Fc (extracellular domain of EGFR) (human) (UniProt P00533); test: SPR
[2] = target: human HER2.Fc (extracellular domain of HER2) (human) (UniProt P04626); test: SPR

| Substance | Kd [1] | koff [1] | kon [1] | Kd [2] | koff [2] | kon [2] |
| --- | --- | --- | --- | --- | --- | --- |
| Z_(EGFR:1907) (designed binder) | 7.06 nM | 0.000666 s⁻¹ | 94300 M⁻¹ s⁻¹ | – | – | – |
| Z_(HER2:342) (designed binder) | – | – | – | 0.076 nM | 0.000111 s⁻¹ | 1.45e+06 M⁻¹ s⁻¹ |
| Z_(HER2:342).BirA* (designed binder) | – | – | – | 0.0109 nM | 1.14e-07 s⁻¹ | 10400 M⁻¹ s⁻¹ |
